Reference: patent US20220031745A1

Assays:
Assay in all cases: quantitative flow cytometry, anti-myc staining of CD8+ T cells; ABC = number of receptors/cell; UnT T cells read ~350
[1] = target: high affinity anti-Her2 CAR (4D5 variant HIGH scFv, CD8 transmembrane, 41BB, CD3zeta) (UniProt P01732)
[2] = target: low affinity anti-Her2 SynNotch receptor (4D5 variant LOW scFv, mouse Notch1 minimal regulatory region, Gal4 DBD VP64) (mouse) (UniProt Q01705)
[3] = target: low affinity anti-Her2 CAR (4D5 variant LOW scFv, CD8 transmembrane, 41BB, CD3zeta) (UniProt P01732)

**Q.** Which ABC (antibody binding capacity) [1] does the source give for Anti-myc Alexa-647 (antibody) here?
**A.** 19000

**Q.** What about the ABC (antibody binding capacity) [2] of the same substance?
**A.** 2550

**Q.** And the ABC (antibody binding capacity) [3]?
**A.** 7600
